According to patent US20140178388A1 (INDUSTRIAL TECHNOLOGY RESEARCH INSTITUTE, published 2014):

B1: h145FabCSA trimer (Fab, V domains shown)
VH: EVQLQESGGGLVQPGKSLKLSCEASGFTFSGYGMHWVRQAPGRGLESVAYITSSSINIKYADAVKGRFTVSRDNAKNLLFLQMNILKSEDTAMYYCARFDWDKNYWGQGTMVTVSS
VL: DIQMTQSPSSLPASLGDRVTINCQASQDISNYLNWYQQKPGKAPKLLIYYTNKLADGVPSRFSGSGSGRDSSFTISSLESEDIGSYYCQQYYNYPWTFGPGTKVEIKR
notes: Trimeric Fab-collagen-like peptide fusion from the Superdex 200 peak 2 fraction; Expressed in NS0 cells; also called trimeric h145FabCSA
B2: hOKT3FabCSA trimer (Fab, V domains shown)
VH: QVQLVQSGGGVVQPGRSLRLSCKASGYTFTRYTMHWVRQAPGKGLEWIGYINPSRGYTNYNQKVKDRFTISRDNSKNTAFLQMDSLRPEDTGVYFCARYYDDHYCLDYWGQGTPVTVSS
VL: DIQMTQSPSSLSASVGDRVTITCSASSSVSYMNWYQQTPGKAPKRWIYDTSKLASGVPSRFSGSGSGTDYTFTISSLQPEDIATYYCQQWSSNPFTFGQGTKLQITR
notes: Trimeric Fab-collagen-like peptide fusion from the Superdex 200 peak 2 fraction; Expressed in CHO-S cells; also called trimeric hOKT3FabCSA; trivalent hOKT3FabCSA
B3: low-Fc binding anti-human CD3 antibody-hOKT3IgG-AA (antibody, V domains shown)
VH: B2 VH
VL: DIQMTQSPSSLSASVGDRVTITCSASSSVSYMNWYQQTPGKAPKRWIYDTSKLASGVPSRFSGSGSGTDYTFTISSLQPEDIATYYCQQWSSNPFTFGQGTKLQIT
notes: also called hOKT3IgG-AA (dimer)

How the values were obtained:
[1] = target: T1, mouse CD3 on mouse spleen T lymphocytes (mouse, UniProt P22646 22-189); test: flow cytometry (MFI) on purified mouse spleen T lymphocytes, serial dilution
T1 construct: whole, on cells; also called mouse T lymphocytes

[2] = target: T2, human CD3 (TCR-CD3 complex) on human T cells (human, UniProt P07766 23-207); test: flow cytometry (MFI) on purified human T lymphocytes, serial dilution
T2 construct: whole, on cells; The other subunits of the complex on the cells are not described; also called CD3ε chain; CD3(+) Jurkat T cells

T1 sequence (P22646 22-189): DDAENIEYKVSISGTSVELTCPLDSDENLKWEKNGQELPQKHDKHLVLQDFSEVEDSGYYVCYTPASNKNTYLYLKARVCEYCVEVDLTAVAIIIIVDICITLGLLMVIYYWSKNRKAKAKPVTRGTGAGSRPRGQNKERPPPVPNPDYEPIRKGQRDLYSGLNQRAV

Molecule | Kd [1] [nM] | fold greater binding strength than 145-2C11 [1] [fold] | Kd [2] [nM] | fold greater binding strength than hOKT3IgG-AA [2] [fold]
hamster anti-mouse CD3 antibody (145-2C11) | 15 |  |  | 
B1 | 4 | 3.75 |  | 
B2 |  |  | 0.02 | 7.5
B3 |  |  | 0.15 | 
